Results taken from the DeepSol protein solubility set.

Assay: soluble on expression in E. coli; label from the status in PepcDB or PDB records
For “MCGIFAYLNFLAPKKRSEIVDILVQGLQRMEYRGYDSAGIAIDGSNDIENPHSKIALLRKRGKVSVLNDYIKENNEKLNMDMEYNIHCGIAHTRWATHGSPRDVNSHPHRSNDNNEFLVVHNGIITNYREIKEYLEKKGHKFESETDTEVIAKLTQHVHDRYPDFSFRQLVETVIQQLEGAFALAFKSSRFPGQLVASRRGSPLLVGIKSNSTLHTSHFPVSYSKGRCFMSNNATHLREETSFVETPNNILDLSIAVRNPSGSAKLPDNNSTTRPFDSTDFEVEYFIASDAAAIIEHTKQVLFLEDDDVAFVEDGSLTIHRISRHADSGEQKREVQLLELEIQEIMKGSYKTFMQKEIFEQPESVVNTMRGRVLPSGQVVLGGLKEYLPAIKRCRRLIMVACGTSYHSAIACRQVLEELSELPVVVELASDFLDRETPIFRNDVCLFISQSGETADTLMALRYCKPRGALTIGVTNTVGSSIGRESHCGIHINAGPEIGVASTKAYTSQIVSLLLFALTISEDRISKMKRRAEIIDALNNLPILIRDVLDLDDQVLKIAEQIYKDKSLLIMGRGLNFATCLEGALKIKELSYMHCEGIMSGELKHGPLAMVDEFLSICMVVCNDHVYKKSLNALQQVVARKGAPIIIADSSVPESDLAGMKHVLRVPRTVDCVQNILTVIPLQLLSYHIAELNGANVDRPRNLAKSVTVE”, the “soluble on expression in E. coli” value was “not soluble”. For “MGHHHHHHSHMANSAGSMANSAGSPELLTKHNRRVAQKTVESLKRSLMSTNLHPSKQVKTSSQYTIFSTPQIATTTPQTQVSPGMPLMFPGGSPNFVQDIKMENGFMDVDSQSSQCPSVERNFASPRSNCSTVDSIPPMQMGQNQTHLYLPDATNFTFNGNFASPSSNCSTVDSIPPFQIGQRNNHMYLPENSNFPVNGCSPTHFSGGSMTPINNNNNVLINNNNNDFLSQKMSAISIPPQGNFGIKQVYQQTQQFLPQLQPESIPYLAQSHPEQSQYQQQQQPQEQQPPADEPTQSFSDLISSSIGMAPIDTSELIQDIEAELNSLGIQPFK”, the “soluble on expression in E. coli” value was “not soluble”. With “MGSDKIHHHHHHMKKILIVTRTFGKYSQEPVEFLRKEGFEIIRSDTIDPDILKEVDALIVGTHPVTAEMVENSSLKIIAKHGVGVDNIDLEAATKKGIPVTITAGANSLSVAELTIAFIFALSRGLVWAHNKLFLERRWEGTVGQEVSGKTLGVVGFGSIGREVVKKAVCLGMNVLVYDPYVSKDSVRLLEATPVDDLEQLLKESDFVSLHVPLNESTKNMIGERELSLMKKSAFLINTSRGELVDEEALVKALKEGRIAGAALDVFSEEPPDANSPLFECPNLITTAHIGAHTKEAIFRMNMMAAQSIVDFFKGRIPRYVVNKEVIRILKEKGYQEIS” the “soluble on expression in E. coli” value was “not soluble”. For “MTTTEVKMFTFNSVAENTYILYDSTGEAALIDCGCMDGSEEQQLLRFVQEQQLTVKLLLNTHLHFDHAWGNGFAAKTFGLPVLTHRAEVEEMPSPSKQLAAFGMFGTMDEPPIQYIAPGDVLQLGESIIKVLFVPGHSPGHLAFYCPQAQAVFTGDALFAGDMGRTDLWGGSYELLKKSIRTELLPLPDDTVVYPGHGPTSTIAYERTNNPFLD”, the “soluble on expression in E. coli” value was “not soluble”. In the case of “MSLNILIIAFEGIEGSGKTSHLEATKKYLEKEGYGVVTFGLQMSKLIGDRIAQVKRNIIFERRTLFLAYVTDLADQIENYVKPSIDSGFIALADGYTLTLTSWGLTRGLEKEWIDDVLSMLPKPSISLPLISTPDEIVRRIIKKRGYLDPLETGIDICIKEDTFEAYIDYINRFQEALMSISSRENIIYTDKEFDEVQKEIVRRIDNITEGHHHHHH”, the “soluble on expression in E. coli” value is reported as “soluble”. For “FASFSNFTLKYHEKRFQQYGYGLMLNDTNFPGGSSGSPLIGKDNKLNSIYFGVLEIYQSGSLARNDIGMSQILRTPQ”, the “soluble on expression in E. coli” value was “not soluble”. In the case of “TPIINDPETVKLFLLTELQHEEREVFMVLFLDNQHRLIKKERLFLGTIYVSAVYPREIIKEALYCNAAALILAHNHPSGITEPSYSDQLITKKIQDAAELMEIRVLDHLIVGKSDCYSFAENCLL”, the “soluble on expression in E. coli” value is reported as “not soluble”. For “MRVFYDKDCDLSIIQGKKVAIIGYGSQGHAHACNLKDSGVDVTVGLRSGSATVAKAEAHGLKVADVKTAVAAADVVMILTPDEFQGRLYKEEIEPNLKKGATLAFAHGFSIHYNQVVPRADLDVIMIAPKAPGHTVRSEFVKGGGIPDLIAIYQDASGNAKNVALSYACGVGGGRTGIIETTFKDETETDLFGEQAVLCGGCVELVKAGFETLVEAGYAPEMAYFECLHELKLIVDLMYEGGIANMNYSISNNAEYGEYVTGPEVINAESRAAMRNALKRIQDGEYAKMFITEGAANYPSMTAYRRNNAAHPIEQIGEKLRAMMPWIAANKIVDKSKN”, the “soluble on expression in E. coli” value was “soluble”.
